These results are taken from patent publication US20140242084A1 (published 2014).

Usually Kd stands for the constant that tells how readily two partners part at equilibrium.

T1: junction protein JAM-C (human, UniProt Q9BX67 32-310)
T1 construct: whole, on cells
T1 sequence (looked up): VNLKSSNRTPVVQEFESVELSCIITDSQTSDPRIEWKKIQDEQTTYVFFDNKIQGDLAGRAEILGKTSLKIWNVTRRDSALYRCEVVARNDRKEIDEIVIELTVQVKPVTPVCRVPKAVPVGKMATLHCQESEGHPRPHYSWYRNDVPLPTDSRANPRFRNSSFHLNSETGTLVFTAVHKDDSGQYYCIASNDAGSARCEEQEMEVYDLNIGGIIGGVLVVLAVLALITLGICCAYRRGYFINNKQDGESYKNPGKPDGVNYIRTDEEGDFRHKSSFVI

T2: VE-cadherin of primary human microvascular endothelial cells (HMVECs) (human, UniProt P33151 48-784)
T2 construct: whole, on cells; Endogenous protein, detected by in situ PLA and by co-immunoprecipitation
T2 sequence (looked up): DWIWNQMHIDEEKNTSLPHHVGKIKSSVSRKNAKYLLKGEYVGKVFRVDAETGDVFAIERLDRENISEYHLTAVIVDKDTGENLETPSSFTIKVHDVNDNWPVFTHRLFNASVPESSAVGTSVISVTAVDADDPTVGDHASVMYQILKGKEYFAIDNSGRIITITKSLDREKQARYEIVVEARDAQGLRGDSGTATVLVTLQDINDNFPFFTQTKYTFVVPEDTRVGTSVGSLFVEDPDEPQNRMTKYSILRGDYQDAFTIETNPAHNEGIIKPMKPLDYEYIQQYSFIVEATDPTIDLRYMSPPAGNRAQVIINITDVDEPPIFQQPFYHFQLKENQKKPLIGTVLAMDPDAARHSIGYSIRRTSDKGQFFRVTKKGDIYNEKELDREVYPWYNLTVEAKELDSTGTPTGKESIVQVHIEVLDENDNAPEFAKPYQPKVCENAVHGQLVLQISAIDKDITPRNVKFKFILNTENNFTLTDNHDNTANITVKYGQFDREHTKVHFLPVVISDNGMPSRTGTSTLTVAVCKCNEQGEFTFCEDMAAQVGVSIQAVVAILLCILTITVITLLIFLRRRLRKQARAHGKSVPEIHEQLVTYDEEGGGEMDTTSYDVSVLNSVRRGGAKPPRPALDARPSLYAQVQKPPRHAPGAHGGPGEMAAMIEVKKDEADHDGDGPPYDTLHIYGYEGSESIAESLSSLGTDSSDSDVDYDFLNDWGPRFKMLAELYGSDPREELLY

T3: occludin (UniProt Q16625 1-522, limits assumed)
T3 sequence (looked up): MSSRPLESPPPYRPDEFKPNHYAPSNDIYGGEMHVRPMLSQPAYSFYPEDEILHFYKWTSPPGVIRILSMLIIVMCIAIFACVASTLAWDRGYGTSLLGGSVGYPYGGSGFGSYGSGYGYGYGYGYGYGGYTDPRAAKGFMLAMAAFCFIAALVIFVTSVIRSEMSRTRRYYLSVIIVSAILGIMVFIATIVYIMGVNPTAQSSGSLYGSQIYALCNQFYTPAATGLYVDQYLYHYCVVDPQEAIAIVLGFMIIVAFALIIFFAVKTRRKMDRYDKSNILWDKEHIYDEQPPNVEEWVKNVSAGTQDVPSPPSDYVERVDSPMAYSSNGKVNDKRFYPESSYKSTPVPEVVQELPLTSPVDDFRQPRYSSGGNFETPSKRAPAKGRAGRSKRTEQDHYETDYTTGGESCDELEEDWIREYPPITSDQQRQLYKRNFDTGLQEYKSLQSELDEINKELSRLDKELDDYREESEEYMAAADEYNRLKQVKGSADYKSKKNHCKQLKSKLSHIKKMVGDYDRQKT

T4: VE-cadherin (SPR analyte) (UniProt P33151 48-599, limits assumed)
T4 sequence (looked up): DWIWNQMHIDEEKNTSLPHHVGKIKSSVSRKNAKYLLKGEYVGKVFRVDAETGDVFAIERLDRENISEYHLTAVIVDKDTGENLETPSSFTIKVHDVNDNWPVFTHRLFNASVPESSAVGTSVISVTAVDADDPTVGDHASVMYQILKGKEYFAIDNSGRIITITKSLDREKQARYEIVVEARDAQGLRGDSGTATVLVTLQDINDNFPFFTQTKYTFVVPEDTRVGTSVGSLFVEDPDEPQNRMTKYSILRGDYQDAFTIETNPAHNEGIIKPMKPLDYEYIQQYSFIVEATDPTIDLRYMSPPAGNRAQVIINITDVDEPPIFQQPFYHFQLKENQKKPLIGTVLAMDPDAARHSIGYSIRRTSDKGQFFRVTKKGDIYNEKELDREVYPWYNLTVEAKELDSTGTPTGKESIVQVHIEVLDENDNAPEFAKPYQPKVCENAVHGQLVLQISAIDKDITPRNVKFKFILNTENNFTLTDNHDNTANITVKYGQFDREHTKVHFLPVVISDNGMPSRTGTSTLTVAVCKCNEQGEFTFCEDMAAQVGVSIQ

B1: junctional adhesion molecule A (JAM-A) (other, UniProt Q9Y624 28-238, looked up)
chain: SVTVHSSEPEVRIPENNPVKLSCAYSGFSSPRVEWKFDQGDTTRLVCYNNKITASYEDRVTFLPTGITFKSVTREDTGTYTCMVSEEGGNSYGEVKVKLIVLVPPSKPTVNIPSSATIGNRAVLTCSEQDGSPPSEYTWFKDGIVMPTNPKSTRAFSNSSYVLNPTTGELVFDPLSASDTGEYSCEARNGYGTPMTSNAVRMEAVERNVGV
B2: VE-cadherin EC3 (other, UniProt P33151 259-372, looked up)
chain: TQTKYTFVVPEDTRVGTSVGSLFVEDPDEPQNRMTKYSILRGDYQDAFTIETNPAHNEGIIKPMKPLDYEYIQQYSFIVEATDPTIDLRYMSPPAGNRAQVIINITDVDEPPIF
notes: domain: EC3
B3: recombinant human cANGPTL4 (C-terminal region of angiopoietin-like 4) (ligand, UniProt Q9BY76 186-406, looked up)
chain: RDCQELFQVGERQSGLFEIQPQGSPPFLVNCKMTSDGGWTVIQRRHDGSVDFNRPWEAYKAGFGDPHGEFWLGLEKVHSITGDRNSRLAVQLRDWDGNAELLQFSVHLGGEDTAYSLQLTAPVAGQLGATTVPPSGLSVPFSTWDQDHDLRRDKNCAKSLSGGWWFGTCSHSNLNGQYFRSIPQQRQKLKKGIFWKTWRGRYYPLQATTMLIQPMAAEAAS
notes: domain: c terminal region; the tag is not specified; also called rh-cANGPTL4; rhcANGPTL4
B4: claudin-5 of primary human microvascular endothelial cells (HMVECs) (other, UniProt O00501 1-218, looked up)
chain: MGSAALEILGLVLCLVGWGGLILACGLPMWQVTAFLDHNIVTAQTTWKGLWMSCVVQSTGHMQCKVYDSVLALSTEVQAARALTVSAVLLAFVALFVTLAGAQCTTCVAPGPAKARVALTGGVLYLFCGLLALVPLCWFANIVVREFYDPSVPVSQKYELGAALYIGWAATALLMVGGCLLCCGAWVCTGRPDLSFPVKYSAPRRPTATGDYDKKNYV
notes: whole, on cells; Endogenous protein, detected by in situ PLA and by co-immunoprecipitation

Experiment [1] deals with B3. As to the kind of experiment: SPR, immobilised cANGPTL4. On the procedure:
(§1) SPR was carried out as previously described17,18 using a BIAcore 2000 system (BIAcore, Uppsala, Sweden). Six concentrations (0.16, 0.32, 0.63, 1.25, 2.50 and 5.0 μM) of recombinant integrin β1, first extracellular domain of VE-cadherin (ECD1), extracellular repeat 1 domain of VE-cadherin (EC1), occludin or JAM-A were used. Integrin was expressed in Drosophila S2 cells17 and various extracellular domains of VE-cadherin and claudin-5 purchased from Abnova. Global fitting of the SPR data was performed as previously described to determine the KD. Preinjection or preincubation with the indicated antibodies or preimmune IgG was performed to determine specific interactions. Each sensorgram was corrected by subtracting a sensorgram obtained from a reference flow cell with no immobilized protein. […] Values are mean±S.D. (n=3)

The target of experiment [2] is B3. The experiment in a line: SPR, immobilised cANGPTL4 (FIG. 2B). How it is done: as §1
For a further experiment, the target named is T1, junction protein JAM-C. The experiment in a line: co-immunoprecipitation with anti-cANGPTL4 from lysates of rh-cANGPTL4-treated HMVECs (FIG. 5B).
The target of the next experiment is T5, Tie2 (human, UniProt Q02763 23-1124).
T5 construct: whole, on cells
The description is as above.

A further experiment addresses T6, Tie1 (human, UniProt P35590 22-1138).
T6 construct: whole, on cells
Described as above.

A further experiment concerns the target T7, integrin β3 of HMVECs (human, UniProt P05106 27-788).
T7 construct: whole, on cells
The description is as above.

Experiment [3] addresses T2, VE-cadherin of primary human …. The experiment in a line: kinetic PLA in HMVECs in the presence of anti-integrin antibody, against the zero time point (FIG. 4C). How it is done:
(§2) (A, B and D, E) Immunofluorescence staining for ZO-1 (A, D) and transendothelial electrical resistance (TER) measurement (B, E) in confluent HMVEC monolayer. […] Treatments were for 3 or 6 h. HMVECs were counterstained with DAPI (blue) for nuclei and phalloidin (red) for actin stress fibers. Scale bar: 40 μm. White arrows indicate endothelial junction lesions. Data (means±S.D.) from 3 independent experiments. *, P<0.05; **, P<0.01. […] Values (means±S.D.) represent mean fold change in the number of interactions compared to the zero time point, as determined from n=3 independent experiments (˜600 HMVECs) using BlobFinder.

In experiment [4] the target is B4. Described as above. How it is done:
as §2

The target in experiment [5] is T8, integrin α5β1 of primary human microvascular endothelial cells (HMVECs) (human, UniProt P08648 42-1049; P05556 21-798).
T8 construct: whole, on cells; Endogenous protein, detected by in situ PLA and by co-immunoprecipitation from HMVEC lysates
T8 sequence (P08648 42-1049, chain 1 of 2): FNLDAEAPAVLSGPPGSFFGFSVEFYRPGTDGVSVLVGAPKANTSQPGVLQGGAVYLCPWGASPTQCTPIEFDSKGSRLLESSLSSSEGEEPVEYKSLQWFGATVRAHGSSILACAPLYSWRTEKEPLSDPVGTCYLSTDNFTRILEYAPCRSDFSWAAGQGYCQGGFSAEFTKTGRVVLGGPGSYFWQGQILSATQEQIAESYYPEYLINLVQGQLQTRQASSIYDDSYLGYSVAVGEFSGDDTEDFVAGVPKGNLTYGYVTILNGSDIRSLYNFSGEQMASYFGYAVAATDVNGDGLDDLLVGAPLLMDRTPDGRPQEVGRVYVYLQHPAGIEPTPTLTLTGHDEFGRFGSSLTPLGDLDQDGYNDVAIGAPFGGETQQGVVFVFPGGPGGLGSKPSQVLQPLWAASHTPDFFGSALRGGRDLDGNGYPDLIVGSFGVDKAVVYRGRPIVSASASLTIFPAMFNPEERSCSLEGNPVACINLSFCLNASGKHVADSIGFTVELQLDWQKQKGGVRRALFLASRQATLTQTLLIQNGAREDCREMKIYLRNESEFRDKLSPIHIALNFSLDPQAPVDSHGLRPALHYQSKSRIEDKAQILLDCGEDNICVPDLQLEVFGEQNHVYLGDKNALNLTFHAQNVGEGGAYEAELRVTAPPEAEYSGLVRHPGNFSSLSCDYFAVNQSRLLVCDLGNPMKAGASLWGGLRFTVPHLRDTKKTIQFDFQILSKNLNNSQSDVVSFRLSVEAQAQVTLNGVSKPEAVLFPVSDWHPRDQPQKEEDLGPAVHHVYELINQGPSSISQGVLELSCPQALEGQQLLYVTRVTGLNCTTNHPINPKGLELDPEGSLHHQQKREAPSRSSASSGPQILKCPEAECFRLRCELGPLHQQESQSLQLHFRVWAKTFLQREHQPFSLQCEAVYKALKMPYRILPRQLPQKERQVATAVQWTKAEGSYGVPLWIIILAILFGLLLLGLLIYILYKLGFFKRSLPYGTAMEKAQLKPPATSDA
T8 sequence (P05556 21-798, chain 2 of 2): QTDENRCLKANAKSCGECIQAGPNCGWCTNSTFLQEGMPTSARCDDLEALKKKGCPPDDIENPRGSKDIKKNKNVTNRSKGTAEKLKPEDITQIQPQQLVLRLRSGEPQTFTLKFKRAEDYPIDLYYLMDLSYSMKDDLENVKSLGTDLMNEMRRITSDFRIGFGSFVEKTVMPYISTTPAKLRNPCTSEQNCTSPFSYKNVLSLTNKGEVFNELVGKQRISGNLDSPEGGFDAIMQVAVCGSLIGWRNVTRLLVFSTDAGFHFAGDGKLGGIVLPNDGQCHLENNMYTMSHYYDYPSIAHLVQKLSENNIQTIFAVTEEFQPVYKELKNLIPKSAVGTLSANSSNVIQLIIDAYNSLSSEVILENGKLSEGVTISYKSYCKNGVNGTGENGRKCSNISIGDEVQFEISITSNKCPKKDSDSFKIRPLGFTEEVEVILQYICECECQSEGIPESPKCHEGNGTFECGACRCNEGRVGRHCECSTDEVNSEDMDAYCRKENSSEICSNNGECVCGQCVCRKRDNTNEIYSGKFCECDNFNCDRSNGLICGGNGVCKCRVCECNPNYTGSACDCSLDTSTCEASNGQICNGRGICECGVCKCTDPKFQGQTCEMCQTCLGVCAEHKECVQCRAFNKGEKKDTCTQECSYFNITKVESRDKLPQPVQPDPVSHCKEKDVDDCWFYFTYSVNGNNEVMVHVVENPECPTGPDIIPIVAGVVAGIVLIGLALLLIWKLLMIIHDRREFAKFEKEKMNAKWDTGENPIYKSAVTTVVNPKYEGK
The experiment in a line: in situ proximity ligation assay on ECs, 250 cells.

Experiment [6] has as its target T2, VE-cadherin of primary human …. The experiment in a line: in situ proximity ligation assay on ECs, 250 cells.
Experiment [7] has as its target B4. The experiment in a line: in situ proximity ligation assay on ECs, 250 cells.
The next experiment addresses T3, occludin. The experiment in a line: SPR, immobilised cANGPTL4. How it is done:
as §1
Background: SPR reads the build-up and loss of mass on a sensor chip optically.

Experiment [8] deals with integrin β3 (control of the interaction analysis in paragraph 126) (UniProt P05106 27-718, limits assumed). The experiment in a line: SPR control (sentence also cites references 16, 17).
Chain of integrin β3 (control of the interaction analysis in paragraph 126) (P05106 27-718 limits assumed): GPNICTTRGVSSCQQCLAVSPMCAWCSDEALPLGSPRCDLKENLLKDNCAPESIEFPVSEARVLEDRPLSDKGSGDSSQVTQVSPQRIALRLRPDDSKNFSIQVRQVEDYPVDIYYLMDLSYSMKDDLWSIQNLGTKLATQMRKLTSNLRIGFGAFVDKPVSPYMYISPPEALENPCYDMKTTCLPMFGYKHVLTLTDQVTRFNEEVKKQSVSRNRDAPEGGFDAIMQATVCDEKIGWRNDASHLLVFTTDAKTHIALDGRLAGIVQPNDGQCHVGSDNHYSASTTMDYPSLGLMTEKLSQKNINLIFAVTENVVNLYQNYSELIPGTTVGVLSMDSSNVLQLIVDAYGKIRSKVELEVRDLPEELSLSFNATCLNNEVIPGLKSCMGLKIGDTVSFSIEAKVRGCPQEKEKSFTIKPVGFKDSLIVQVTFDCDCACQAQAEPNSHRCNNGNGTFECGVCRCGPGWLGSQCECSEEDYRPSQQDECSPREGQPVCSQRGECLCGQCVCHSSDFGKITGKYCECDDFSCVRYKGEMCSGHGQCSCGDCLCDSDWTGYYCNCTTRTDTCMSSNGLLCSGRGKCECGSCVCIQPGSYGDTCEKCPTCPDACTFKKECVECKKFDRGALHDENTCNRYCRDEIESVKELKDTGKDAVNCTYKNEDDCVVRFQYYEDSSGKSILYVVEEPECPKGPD
The target in experiment [9] is T4, VE-cadherin (SPR analyte). As to the kind of experiment: SPR (BIAcore 2000), immobilised cANGPTL4, global fit. How it is done: as §1
Experiment [10] deals with recombinant integrin α5β1 (UniProt P08648). Described as above.
A further experiment deals with claudin-5 (SPR analyte) (UniProt O00501). Described as above.
The target of experiment [11] is B3. The experiment in a line: figure legend: kinetic PLA and co-immunoprecipitation in HMVECs. On the procedure:
Values (means±S.D.) represent mean fold change in the number of interactions compared to the zero time point, as determined from n=3 independent experiments (600 HMVECs) using BlobFinder. […] Protein lysates were collected every 10 minutes (0-180 minutes). Values below each band represent the mean fold change in protein expression level compared with the cognate zero time point (n=3). *, P<0.05; **, P<0.01.

T7 sequence (P05106 27-788): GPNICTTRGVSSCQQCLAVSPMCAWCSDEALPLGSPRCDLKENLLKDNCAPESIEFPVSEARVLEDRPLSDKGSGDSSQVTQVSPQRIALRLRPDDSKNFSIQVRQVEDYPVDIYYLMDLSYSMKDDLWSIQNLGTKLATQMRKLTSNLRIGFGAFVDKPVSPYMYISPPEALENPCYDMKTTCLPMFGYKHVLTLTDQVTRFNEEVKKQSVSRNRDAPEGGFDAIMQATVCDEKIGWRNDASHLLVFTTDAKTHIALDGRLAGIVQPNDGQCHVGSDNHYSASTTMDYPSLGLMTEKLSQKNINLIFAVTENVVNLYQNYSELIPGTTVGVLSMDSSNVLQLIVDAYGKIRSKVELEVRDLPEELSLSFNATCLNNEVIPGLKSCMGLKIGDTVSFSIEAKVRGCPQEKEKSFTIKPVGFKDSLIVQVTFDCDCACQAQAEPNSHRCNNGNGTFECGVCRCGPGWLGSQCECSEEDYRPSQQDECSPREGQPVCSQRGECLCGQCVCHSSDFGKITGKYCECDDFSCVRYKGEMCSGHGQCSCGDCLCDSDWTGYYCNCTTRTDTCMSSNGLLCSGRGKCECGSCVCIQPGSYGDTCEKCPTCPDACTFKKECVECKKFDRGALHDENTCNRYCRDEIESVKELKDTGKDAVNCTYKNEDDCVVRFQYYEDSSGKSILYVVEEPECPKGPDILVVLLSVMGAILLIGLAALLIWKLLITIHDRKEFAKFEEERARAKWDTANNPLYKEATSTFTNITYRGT
T6 sequence (P35590 22-1138): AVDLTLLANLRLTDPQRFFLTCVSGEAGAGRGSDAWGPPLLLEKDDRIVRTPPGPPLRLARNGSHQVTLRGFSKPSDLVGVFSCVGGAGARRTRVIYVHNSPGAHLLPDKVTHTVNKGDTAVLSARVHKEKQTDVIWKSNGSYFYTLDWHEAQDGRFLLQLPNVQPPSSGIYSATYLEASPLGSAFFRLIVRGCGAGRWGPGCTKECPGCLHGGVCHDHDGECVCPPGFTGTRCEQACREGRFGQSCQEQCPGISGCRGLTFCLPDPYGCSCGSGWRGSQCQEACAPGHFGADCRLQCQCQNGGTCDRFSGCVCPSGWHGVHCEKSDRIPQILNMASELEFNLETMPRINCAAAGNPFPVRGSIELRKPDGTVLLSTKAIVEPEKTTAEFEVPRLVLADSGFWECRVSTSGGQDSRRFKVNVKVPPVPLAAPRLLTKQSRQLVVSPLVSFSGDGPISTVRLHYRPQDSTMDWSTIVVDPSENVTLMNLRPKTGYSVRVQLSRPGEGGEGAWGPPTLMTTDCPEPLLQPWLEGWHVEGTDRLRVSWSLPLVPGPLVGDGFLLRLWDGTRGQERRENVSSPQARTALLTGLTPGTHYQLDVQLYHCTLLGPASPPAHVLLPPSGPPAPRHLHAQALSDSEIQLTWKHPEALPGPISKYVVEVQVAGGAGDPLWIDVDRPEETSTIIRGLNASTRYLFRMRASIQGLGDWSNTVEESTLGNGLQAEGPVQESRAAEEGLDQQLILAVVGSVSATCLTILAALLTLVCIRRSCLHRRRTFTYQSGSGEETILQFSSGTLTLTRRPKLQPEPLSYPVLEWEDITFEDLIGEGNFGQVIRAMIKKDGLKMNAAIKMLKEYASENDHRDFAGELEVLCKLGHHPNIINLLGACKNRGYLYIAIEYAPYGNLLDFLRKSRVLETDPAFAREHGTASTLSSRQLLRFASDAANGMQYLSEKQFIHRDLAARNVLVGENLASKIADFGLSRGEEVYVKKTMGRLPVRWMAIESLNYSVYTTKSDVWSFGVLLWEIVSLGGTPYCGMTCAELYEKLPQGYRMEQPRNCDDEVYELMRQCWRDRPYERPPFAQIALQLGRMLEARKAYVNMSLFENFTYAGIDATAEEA

For B1, the binding result in experiment [1] is reported as “no binding (tested: 0.16-5.0 µM)”.
Regarding B2, the binding result in experiment [2] is on record as “no binding”.
Consider B3, for which the binding result in the experiment with junction protein JAM-C is listed as “no binding”; in the experiment with Tie2 it was “no binding”; with Tie1 it was “no binding”; with integrin β3 of HMVECs, “no binding”; with occludin, “no binding (tested: 0.16-5.0 µM)”; in experiment [8] it was “no binding”. Moreover, the “mean fold change in the interactions” value in [3] and in experiment [4] was 0.4 fold each time. In addition, the PLA spots/cell was 22.5 PLA spots/cell in [5], 16.4 PLA spots/cell in experiment [6] and 12.3 PLA spots/cell in experiment [7]. The Kd stood at 112 nM in experiment [9], 12.6 nM in experiment [10] and 58.7 nM in the experiment with claudin-5 (SPR analyte).
Turning to B4, the binding result in [11] is listed as “binds”.
